The values that follow come from FireProtDB (doi:10.1021/bi992119u).

The labels stand for the following.
B1: Steroid Delta-isomerase, P07445 (parent)
chain: MNLPTAQEVQGLMARYIELVDVGDIEAIVQMYADDATVEDPFGQPPIHGREQIAAFYRQGLGGGKVRACLTGPVRASHNGCGAMPFRVEMVWNGQPCALDVIDVMRFDEHGRIQTMQAYWSEVNLSVREPQ

The variants in the data set derive from B1. As to conditions: Pseudomonas putida; pH 7; 25 °C; Urea; CD; Sodium phosphate 25 mM; reversible: yes; structure 1OH0; whole UniProt chain shown.

In the case of Y57F V101L, the denaturant m value was 2.31 kcal/mol/M, the “denaturant midpoint (higher = more stable)” value (“denaturant midpoint” for short) came to 4.25 M and the unfolding free energy turned out to be 16.4 kcal/mol.
Turning to V101L, the denaturant m value was determined as 3.32 kcal/mol/M, the “denaturant midpoint” value was 4.19 M and the unfolding free energy worked out at 20.5 kcal/mol.
In the same order, the values of Y32F are 3.23 kcal/mol/M, 5.49 M and 24.3 kcal/mol.
On to Y32F V101L, for which the denaturant m value stood at 2.52 kcal/mol/M, the “denaturant midpoint” value came out at 4.45 M and the unfolding free energy stood at 17.8 kcal/mol.
In the case of Y16F, the denaturant m value stood at 3.1 kcal/mol/M, the “denaturant midpoint” value came out at 4.3 M and the unfolding free energy stood at 19.9 kcal/mol.
In the case of Y57F, the denaturant m value is 2.98 kcal/mol/M, the “denaturant midpoint” value was 4.77 M and the unfolding free energy amounted to 20.8 kcal/mol.
Y32F Y57F: the denaturant m value was found to be 3.05 kcal/mol/M, the “denaturant midpoint” value turned out to be 5.81 M and the unfolding free energy is 24.3 kcal/mol.
